Reference: patent US10487318

B1: Homologue 9 (NCBI YP_005042475) (protein)
chain: MTKQPVSGSSDKIHPDDAKCIGDCDPSEQIEVIVMLRRKDEAGFRQMMSRIDAGEAPGQAVSREEFDRRFTASDEDIDKVKAFAKQYGLSVERAETETRSVVLKGTIEQFQKAFDVKLERFQHHNIGEYRGRTGPVNVPDEMHDAVTAVLGLDSKPQARPHFRFRPPFKPLRGAAPASFSPVDLAKLYDFPDGDGAGQCIAIIELGGGYRDSDLSAYFSKLGVKAPTVVPVGVDGGKNAPTGNPNGPDGEVTLDIEIAGAIAPGARIAVYFAPNSDAGFVDAVNRALHDAANKPSVISISWGGPESNWSPQSMSAFNDVLQSAAALGVTVCAASGDGGSADGVGDGADHVDFPASSPYVLGCGGTSLAASGAGIAKEVVWNDGDQGGAGGGGVSGTFALPVWQKGLSVTRNGKHIALAKRGVPDVAGDASPQTGYEVLIDGEDTVVGGTSAVAPLWAALIARINAIDASPAGFVNPKLYKAKTAFRDITEGNNGSFSAAAGWDACTGMGSPDGGKIAAALKPAKPSQSAGQQ
B2: KumaMax™ (protein)
chain: MSDMEKPWKEGEEARAVLQGHARAQAPQAVDKGPVAGDERMAVTVVLRRQRAGELAAHVERQAAIAPHAREHLKREAFAASHGASLDDFAELRRFADAHGLALDRANVAAGTAVLSGPDDAINRAFGVELRHFDHPDGSYRSYLGEVTVPASIAPMIEAVLGLDTRPVARPHFRMQRRAEGGFEARSQAAAPTAYTPLDVAQAYQFPEGLDGQGQCIAIIELGGGYDEASLAQYFASLGVPAPQVVSVSVDGASNQPTGDPKGPDGEVELDIEVAGALAPGAKFAVYFAPDTTAGFLDAITTAIHDPTLKPSVVSISWSGPEDSWTSAAIAAMNRAFLDAAALGVTVLAAAGDSGSTGGEQDGLYHVHFPAASPYVLACGGTRLVASGGRIAQETVWNDGPDGGATGGGVSRIFPLPAWQEHANVPPSANPGASSGRGVPDLAGNADPATGYEVVIDGEATVIGGTSAVAPLFAALVARINQKLGKAVGYLNPTLYQLPADVFHDITEGNNDIANRAQIYQAGPGWDPCTGLGSPIGVRLLQALLPSASQPQPGSTENLYFQSGALE
B3: Homologue 4 mutant (protein)
chain: MANHPLNGSERECLKDAQPIGKADPNERLEVTMLVRRRSHDAFEKHISALAAQGASAKHIDHDEFTKHFGADSADLAAVHAFAQKHGLSVVESHEARRAVVLSGTVAQFDAAFGVSLQQYEHDGGTYRGRTGPIHLPDELNGVVDAVMGLDNRPQARPSFRTRAQGNVRWTARAAGASTFTPVQLASLYDFPQGDGQNQCIGIIELGGGYRPADLKTYFASLNMKAPSVTAVSVDHGRNHPTGDPNGPDGEVMLDIEVAGAVAPGAKIVVYFAPNTDAGFIDAIGTAIHDTKNKPSVISISWSGPESAWTQQAMNAFDQAFQSAAALGVTICAASGDNGSGGGVGDGADHVHFPASSPYALGCGGTSLQASGNGIASETVWNDGANGGATGGGVSSFFALPAWQEGLRVTRAGGAHSPLAMRGVPDVAGNADPVTGYEVRVDGHDMVIGGTSAVAPLWAGLIARINAIKGAPVGYINPHLYKDPLALVDITKGNNDDFHATAGWDACTGLGRPDGKKVKDAVS
B4: Homologue 2 (NCBI ZP_04943175) (protein)
chain: MQRGTKEGLNMARHLQADREPRIVPESKCLGQCDPAERIHVTIMLRRQEEGQLDALVHQLATGDARAKPVSRDAFAQRFSANPDDIRKTEDFAHRHQLTVDRVDPVESVVVLSGTIAQFEAAFSVKLERFEHRSIGQYRGRSGPIVLPDDIGDAVTAVLGLDSRPQARPHFRFRPPFKPARGAAAVTFTPIQLASLYDFPAGDGAGQCIAIIELGGGYRAADIQQYFRGLGITTPPKLVDVNVGTGRNAPTGEPNGPDGEVALDIEIAGAIAPAAKIAVYFAPNSDAGFIQAVNAAVTDKTNQPSVISISWGGPEAIWQAQSAQAFNRVLQAAAAQGITVCAASGDSGSGDGLQDGADHVDFPASSPYVLGCGGTQLDALPGQGIRSEVTWNDEASGGGAGGGGVSALFDLPAWQQGLKVARADGTTTPLAKRGVPDVAGDASPQTGYEVSVAGTPAVMGGTSAVAPLWAALIARINAANGASAGWINPVLYKHPGALRDITKGSNGTYAAASGWDACTGLGSPNGAQLATILARKPSS
B5: Kumamolisin-As (wild type) (protein)
chain: MSDMEKPWKEGEEARAVLQGHARAQAPQAVDKGPVAGDERMAVTVVLRRQRAGELAAHVERQAAIAPHAREHLKREAFAASHGASLDDFAELRRFADAHGLALDRANVAAGTAVLSGPVDAINRAFGVELRHFDHPDGSYRSYLGEVTVPASIAPMIEAVLGLDTRPVARPHFRMQRRAEGGFEARSQAAAPTAYTPLDVAQAYQFPEGLDGQGQCIAIIELGGGYDEASLAQYFASLGVPAPQVVSVSVDGASNQPTGDPSGPDGEVELDIEVAGALAPGAKFAVYFAPNTDAGFLDAITTAIHDPTLKPSVVSISWGGPEDSWTSAAIAAMNRAFLDAAALGVTVLAAAGDSGSTDGEQDGLYHVDFPAASPYVLACGGTRLVASGGRIAQETVWNDGPDGGATGGGVSRIFPLPAWQEHANVPPSANPGASSGRGVPDLAGNADPATGYEVVIDGEATVIGGTSAVAPLFAALVARINQKLGKAVGYLNPTLYQLPADVFHDITEGNNDIANRAQIYQAGPGWDPCTGLGSPIGVRLLQALLPSASQPQPGSTENLYFQSGALEHHHHHH
B6: Homologue 1 (NCBI YP_005536585) (protein)
chain: MAPSDVEIVDPVAPEERITVTVLLRRRSSIPDQLIEGPDTLSRAELADRHGADPADVEAVRVAMSGAGLTVVGTDLPSRRVTVAGTAEALMRTFGAELQIVRDASGFQHRARSGELRIPAALDGIVIAVLGLDNRPQAEARFRASQPEAARSFRPDALGRVYRFPANTDGTGQTIAIVELGGGFRQSELDTYFGGLGIPAPQVLAVGVDGGQNLPSGDAGSADGEVLLDIEVAGALAPGARQVVYFAPNTDRGFVDAVTTAVHADPTPAAVSISWGAPEDKWTAQARRAFDAALADAAALGVTVTAAAGDRGSADGEGGGGLHTDFPASSPHLLACGGTKLAVADGGTVASETVWNGGERGGATGGGVSVAFGLPAYQRNAGVDKRRKTGKPGRGVPDVAAVADPATGYEVLVDGEQLVFGGTSAVAPLWAALVARLTQALGRPLGLLNTALYDGAQPGRTQPGFRDVTEGDNDISGKHGPYPARAGWDACTGLGVPDGEALLAALRKPGKE

Target: T1, 26mer peptide (FLQPQQPFPQQPQQPYPQQPQQPFPQ)
T1 chain: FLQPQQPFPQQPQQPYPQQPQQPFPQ

Protein	activity on peptide (percent) [%]
B1	52
B2	26
B3	19

Target: T2, 33mer peptide (LQLQPFPQPQLPYPQPQLPYPQPQLPYPQPQPF)
T2 chain: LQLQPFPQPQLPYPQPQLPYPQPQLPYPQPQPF

Protein	activity on peptide (percent) [%]	Degradation pattern of 33mer (60 min)
B4	31	–
B5	18	degrades the 33-mer down at only a single location (WT-like)
B2	0.1	degrades the 33-mer at multiple locations (Max-like)
B3	10	–
B6	46	–

Target: T3, Glia_56-79 peptide (LQLQPFPQPQLPYPQPQLPY)
T3 chain: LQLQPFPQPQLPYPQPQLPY

Protein	grade and % of peptide after an 80-min incubation
B1	+; 9%
B4	++; 0.2%
B5	+++; 0.2%
B2	++++
B6	++; 1.6%

Target: T4, fluorescent analogue of gliadin, hexapeptide QPQLPY conjugated to a fluorophore and a quencher
T4 chain: QPQLPY

Protein	rate of degradation of the fluorescent hexapeptide, pH 4.0, 37° C.
B1	had activity comparable to or better than Kumamolisin under these conditions
B4	had activity comparable to or better than Kumamolisin under these conditions
B5	Kumamolisin has some activity breaking down these gliadin substrates
B6	had activity comparable to or better than Kumamolisin under these conditions

Target: T5, fluorescently quenched α-gliadin hexapeptide analogue QXL520-PQPQLP-K(5-FAM)-NH2
T5 chain: PQPQLP

Protein	Fold Change in Activity of PQ Hydrolysis Relative to Wild Type Kumamolysin-As [fold]
B5	1

Target: T6, α2-gliadin peptide (PQPQLPYSQPQPFR)
T6 chain: PQPQLPYSQPQPFR

Protein	grade and % of peptide after an 80-min incubation
B1	++ (undetect)
B4	++ (undetect)
B5	++ (undetect)
B2	+/-; 65%
B6	++ (undetect)

Target: T7, α9-gliadin peptide (QLQPFPQPQLPY)
T7 chain: QLQPFPQPQLPY

Protein	grade and % of peptide after an 80-min incubation
B1	+/-; 62%
B4	++/-; 37%;
B5	++; 2%;
B2	++; 0.9%
B6	-; 80%

Target: T8, γ-gliadin peptide (IQPQQPAQL)
T8 chain: IQPQQPAQL

Protein	grade and % of peptide after an 80-min incubation
B1	++/-; 32%
B4	+/-; 65%
B5	++/-; 39%
B2	+/-; 55%
B6	++/-; 29%
